Results: patent publication US20020042368A1

Target: α6β1. α6β4 (human) (UniProt P23229)
Assay: flow cytometry on HMVEC-d; dis-Fc binding with 5-8 fold excess α6β1/α6β4 mAb (GoH3, 439-9B; competitor) vs control mAb

Sequence of ADAM-22dis-Fc (Fc fusion) (chain): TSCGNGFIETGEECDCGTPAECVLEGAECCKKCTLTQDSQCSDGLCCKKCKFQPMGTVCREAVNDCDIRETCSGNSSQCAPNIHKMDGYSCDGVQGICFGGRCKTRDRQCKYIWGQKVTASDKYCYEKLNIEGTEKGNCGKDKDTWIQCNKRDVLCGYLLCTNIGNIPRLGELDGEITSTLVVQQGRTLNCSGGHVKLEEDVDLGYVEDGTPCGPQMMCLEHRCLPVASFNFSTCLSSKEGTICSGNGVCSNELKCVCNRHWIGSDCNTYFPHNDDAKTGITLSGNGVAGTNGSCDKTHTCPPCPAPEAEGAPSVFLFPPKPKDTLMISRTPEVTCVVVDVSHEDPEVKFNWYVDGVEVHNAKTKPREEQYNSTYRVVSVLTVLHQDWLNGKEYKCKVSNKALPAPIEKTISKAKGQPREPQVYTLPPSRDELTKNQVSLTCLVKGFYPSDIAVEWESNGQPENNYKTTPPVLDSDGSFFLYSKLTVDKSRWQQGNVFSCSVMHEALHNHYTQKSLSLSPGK
Sequence of ADAM-23dis-Fc (Fc fusion) (chain): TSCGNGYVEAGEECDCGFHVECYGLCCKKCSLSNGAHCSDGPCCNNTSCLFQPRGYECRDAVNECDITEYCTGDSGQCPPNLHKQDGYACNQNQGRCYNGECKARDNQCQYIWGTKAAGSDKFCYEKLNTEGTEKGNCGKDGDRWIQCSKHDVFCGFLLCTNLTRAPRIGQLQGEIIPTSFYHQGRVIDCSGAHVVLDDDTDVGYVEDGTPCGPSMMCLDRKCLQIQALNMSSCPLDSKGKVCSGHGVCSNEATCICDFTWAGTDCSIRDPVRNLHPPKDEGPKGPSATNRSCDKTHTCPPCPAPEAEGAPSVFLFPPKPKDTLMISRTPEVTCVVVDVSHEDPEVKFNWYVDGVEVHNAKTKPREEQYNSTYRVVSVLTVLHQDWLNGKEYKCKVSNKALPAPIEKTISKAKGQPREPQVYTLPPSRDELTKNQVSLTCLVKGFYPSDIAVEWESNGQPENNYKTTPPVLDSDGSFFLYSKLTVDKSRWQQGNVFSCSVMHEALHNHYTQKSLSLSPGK

Substance	percent inhibition of binding [%]
ADAM-22dis-Fc (Fc fusion)	32
ADAM-23dis-Fc (Fc fusion)	31
